B1: ZNF8 (parent)
chain: KPYTCSVCGKSFSRTTCLFLHLRT

Variants of: B1
Assay: protein stability index of a GFP-peptide fusion (GPS, HEK-293T) (PSI 1-6); higher = more stable
Conditions: c terminus: a fixed tail appended
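Note: lentivirally expressed fusions sorted by FACS into six bins by GFP to DsRed ratio, PSI derived from sequencing read proportions per bin multiplied by bin number.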

Row | Variant | protein stability index
1 | KQYTCSVCGKSFSRTTCLFLHLRT [P2Q] | 1.87
2 | KYYTCSVCGKSFSRTTCLFLHLRT [P2Y] | 2.09
3 | HPYTCSVCGKSFSRTTCLFLHLRT [K1H] | 2.1
4 | WPYTCSVCGKSFSRTTCLFLHLRT [K1W] | 1.74
5 | APYTCSVCGKSFSRTTCLFLHLRT [K1A] | 2.74
6 | MPYTCSVCGKSFSRTTCLFLHLRT [K1M] | 2.22
7 | YPYTCSVCGKSFSRTTCLFLHLRT [K1Y] | 2.24
8 | GPYTCSVCGKSFSRTTCLFLHLRT [K1G] | 2.48
9 | NPYTCSVCGKSFSRTTCLFLHLRT [K1N] | 2.36
10 | IPYTCSVCGKSFSRTTCLFLHLRT [K1I] | 2.04
11 | SPYTCSVCGKSFSRTTCLFLHLRT [K1S] | 1.93
12 | KPYTNSVCGKSFSRTTCLFLHLRT [C5N] | 2.43
13 | KPYTSSVCGKSFSRTTCLFLHLRT [C5S] | 1.56
14 | KPYTFSVCGKSFSRTTCLFLHLRT [C5F] | 2.46
15 | KPYTGSVCGKSFSRTTCLFLHLRT [C5G] | 3.6
16 | KPYTKSVCGKSFSRTTCLFLHLRT [C5K] | 3.15
17 | KPYTCSVCGGSFSRTTCLFLHLRT [K10G] | 2.24
18 | KPYTCSVCGYSFSRTTCLFLHLRT [K10Y] | 2.21
19 | KPYTCSVCGDSFSRTTCLFLHLRT [K10D] | 2.03
20 | KPYTCSVCGSSFSRTTCLFLHLRT [K10S] | 1.52
21 | KPYTCSVCGTSFSRTTCLFLHLRT [K10T] | 2.25
22 | KPYTCSVCGVSFSRTTCLFLHLRT [K10V] | 1.83
23 | KPYTCSVCGMSFSRTTCLFLHLRT [K10M] | 2.88
24 | KPYTCSVCGKAFSRTTCLFLHLRT [S11A] | 2.08

Row | Variant | protein stability index
25 | KPYTCSVCGKNFSRTTCLFLHLRT [S11N] | 2.12
26 | KPYTCSVCGKIFSRTTCLFLHLRT [S11I] | 2.33
27 | KPYTCSVCGKLFSRTTCLFLHLRT [S11L] | 1.69
28 | KPYTCSVCGKYFSRTTCLFLHLRT [S11Y] | 2.2
29 | KPYTCSVCGKGFSRTTCLFLHLRT [S11G] | 1.51
30 | KPYTCSVQGKSFSRTTCLFLHLRT [C8Q] | 4.56
31 | KPYTCSVRGKSFSRTTCLFLHLRT [C8R] | 3.12
32 | KPYTCSVDGKSFSRTTCLFLHLRT [C8D] | 3.17
33 | KPYTCSVKGKSFSRTTCLFLHLRT [C8K] | 2.45
34 | KPYTCSVVGKSFSRTTCLFLHLRT [C8V] | 1.97
35 | KPYTCSVFGKSFSRTTCLFLHLRT [C8F] | 4.22
36 | KPYTCSVCGKSFSRTTCLFLHCRT [L22C] | 2.24
37 | KPYTCSVCGKSFSRTTCLFLHMRT [L22M] | 3.01
38 | KPYTCSVCGKSFSRTTCLFLHYRT [L22Y] | 1.8
39 | KPYTCSVCGKSFSRTTCLFLHERT [L22E] | 2.31
40 | KPYTCSVCGKSFSRTTCLFLHKRT [L22K] | 2.74
41 | KPYTCSVCGKSFSRTTCLFLHNRT [L22N] | 2.57
42 | KPYTCSVCGKSFSRTTCLFLHFRT [L22F] | 1.82
43 | KPYTCSVCGKSFSRTTCLFLHWRT [L22W] | 1.74
44 | KPYTCSVCGKSFSRTTCLFLHPRT [L22P] | 2.78
45 | KPYTCSVCGKSFSRTTCLFLHART [L22A] | 2.08
46 | KPYTCSVCGKSFSRTTCLYLHLRT [F19Y] | 2.44
47 | KPYTCSVCGKSFSRTTCLALHLRT [F19A] | 1.98
48 | KPYTCSVCGKSFSRTTCLWLHLRT [F19W] | 1.57

Row | Variant | protein stability index
49 | KPYTCSVCGKSFSRTTCLMLHLRT [F19M] | 2.35
50 | KPYTCSVCGKSFSRTTCLSLHLRT [F19S] | 2.03
51 | KPYTCSVCGKSFSRTTCLPLHLRT [F19P] | 2.45
52 | KPYTCSVCGKSFIRTTCLFLHLRT [S13I] | 1.67
53 | KPYTCSVCGKSFHRTTCLFLHLRT [S13H] | 1.63
54 | KPYTCSVCGKSFCRTTCLFLHLRT [S13C] | 2.71
55 | KPYTCSVCGKSFQRTTCLFLHLRT [S13Q] | 2.38
56 | KPYTCSVCGKSFGRTTCLFLHLRT [S13G] | 1.62
57 | KPYTCSVCGKSFNRTTCLFLHLRT [S13N] | 1.76
58 | KPYTCSVCGKSFYRTTCLFLHLRT [S13Y] | 1.75
59 | KPYTCSVCGKSFSRTTCLFLHLRN [T24N] | 2.35
60 | KPYTCSVCGKSFSRTTCLFLHLRC [T24C] | 2.07
61 | KPYTCSVCGKSFSRTTCLFLHLRF [T24F] | 2.02
62 | KPYTCSVCGKSFSRTTCLFLHLRV [T24V] | 2.2
63 | KPYTCSVCGKSFSRTTCLFLHLRG [T24G] | 2.37
64 | KPYTCSVCGKSFSRTTCLFLHLRI [T24I] | 1.52
65 | KPYTCSVCGKSFSRTTCLFLHLRE [T24E] | 1.67
66 | KPYTCSVCGKSFSRTTCLFLHLRL [T24L] | 1.58
67 | KPYTCSVCGKSFSRTTCLFLHLRY [T24Y] | 1.68
68 | KPYTCSVCGKSFSRTTCLFLHLRA [T24A] | 1.96
69 | KPYTCSVCGKSFSRTTCLFLHLRK [T24K] | 2.29
70 | KPYTCSVCGKSFSRTTCLFQHLRT [L20Q] | 2.96
71 | KPYTCSVCGKSFSRTTCLFYHLRT [L20Y] | 1.94
72 | KPYTCSVCGKSFSRTTCLFCHLRT [L20C] | 2.63

Row | Variant | protein stability index
73 | KPYTCSVCGKSFSRTTCLFHHLRT [L20H] | 2.79
74 | KPYTCSVCGKSFSRTTCLFAHLRT [L20A] | 2.66
75 | KPYTCSVCGKSFSRTTCLFTHLRT [L20T] | 2.65
76 | KPYTCSVCGKSFSRTTCLFPHLRT [L20P] | 2.27
77 | KPYTCSVCGKSQSRTTCLFLHLRT [F12Q] | 1.58
78 | KPYTCSVCGKSCSRTTCLFLHLRT [F12C] | 1.54
79 | KPYTCSVCGKSDSRTTCLFLHLRT [F12D] | 2.22
80 | KPYTCSVCGKSWSRTTCLFLHLRT [F12W] | 1.72
81 | KPYTCSVCGKSYSRTTCLFLHLRT [F12Y] | 2.15
82 | KPYTCSVCGKSASRTTCLFLHLRT [F12A] | 1.76
83 | KPYTCSVCGKSLSRTTCLFLHLRT [F12L] | 1.83
84 | KPYTCSVCGKSNSRTTCLFLHLRT [F12N] | 2.4
85 | KPYTCSVCGKSFSRTTCCFLHLRT [L18C] | 2.31
86 | KPYTCSVCGKSFSRTTCWFLHLRT [L18W] | 2.18
87 | KPYTCSVCGKSFSRTTCDFLHLRT [L18D] | 2.2
88 | KPYTCSVCGKSFSRTTCYFLHLRT [L18Y] | 2.43
89 | KPYTCSVCGKSFSRTTCRFLHLRT [L18R] | 1.67
90 | KPYTCSVCGKSFSRTTCHFLHLRT [L18H] | 1.96
91 | KPYTCSVCGKSFSRTTCPFLHLRT [L18P] | 2.32
92 | KPYTCSVCGKSFSRTTCTFLHLRT [L18T] | 2.27
93 | KPYTCSVCGKSFSRTTCMFLHLRT [L18M] | 2.33
94 | KPYTCSVCGKSFSRTTCAFLHLRT [L18A] | 2.19

— the supplement of paper PMC10567573
